These results are taken from patent US20030194743A1 (DYAX, published 2003).

Primed or numbered codes have the meaning given here. No end group written: not given here. FITC′ = fluorescein label (fitc)

Broadly, the Kd is the free concentration of one partner at which half of the binding sites on the other are occupied at equilibrium, for simple one-to-one binding. The low end stands for a tighter complex, the high end for a looser complex.

T1 sequence (Q9Y275 134-285 limits assumed): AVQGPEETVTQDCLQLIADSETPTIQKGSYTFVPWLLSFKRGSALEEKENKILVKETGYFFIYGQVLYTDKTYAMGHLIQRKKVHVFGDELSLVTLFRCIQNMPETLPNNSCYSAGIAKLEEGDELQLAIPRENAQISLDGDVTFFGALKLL

One assay addresses T1, B lymphocyte stimulator protein (BLyS) (UniProt Q9Y275 134-285, biotinylated (b-BLyS) in phage screening and phage ELISA; unlabeled in fluorescence anisotropy and column tests).
T1 construct: also called b-BLyS; biotinylated recombinant BLyS
The assay is described as follows: phage ELISA on biotinylated BLyS. (ELISA stands for enzyme-linked immunosorbent assay.)
FHPCDMLTGIWCQPN (also called TN9-01-G06) [453-01-G06] showed an ELISA signal of 1.2 OD630.

Consider YFDQLTHLSIKK (also called PhD-02-D05) [453-02-D05], for which the ELISA signal amounted to 0.8 OD630.

In turn, LNACDIVHPNYCSGM (also called TN9-01-011) [453-01-G11] registered an ELISA signal of 0.8 OD630.

For AMKCYFPWECANG (also called TN7-01-D11) [453-01-D11], the ELISA signal was 1 OD630.

For the molecule GIYDKLTRAWLP (also called PhD-02-B02) [453-02-B02], the ELISA signal amounted to 0.6 OD630.

As to VPFCDLLTKHCFEA (also called TN8-01-B07) [453-01-B07], the ELISA signal is 1.4 OD630.

In turn, SRLCHMDELTHVCVHF (also called TN10-01-F05) [453-01-F05] returned an ELISA signal of 1 OD630.

HVDCLLHPKACYKY (also called TN8-01-C08) [453-01-C08] yielded an ELISA signal of 1.2 OD630.

Molecule KSKCFFPWECQQA (also called TN7-01-B04) [453-01-B04] registered an ELISA signal of 0.8 OD630.

The molecule VHYDSLTKMWTR (also called PhD-02-B05) [453-02-B05] returned an ELISA signal of 0.6 OD630.

In the case of GYDVLTKLYFVP (also called PhD-02-C12) [453-02-C12], the ELISA signal is 0.8 OD630.

For the molecule KEPCYFYWECAVS (also called TN7-01-A08) [453-01-A08], the ELISA signal was 1.2 OD630.

As to GGNCYTDSLTKLHFCMGD (also called TN12-01-H05) [453-01-H05], the ELISA signal came to 1 OD630.

For WTDSLTGLWFPD (also called PhD-02-C04) [453-02-C04], the ELISA signal worked out at 1 OD630.

The target of another assay is T1, B lymphocyte stimulator protein (BLyS). Briefly: fluorescence anisotropy. For orientation: In fluorescence polarisation assays a small probe gives low polarisation when free and higher when bound to something large.
The molecule Ac-WTDSLTGLWFPDGGPGPEGGGK (also: fluorescein-labeled, site not given here, synthetic) [DX221] displayed a Kd of 3000 nM.

The next assay shares this target. Briefly: not stated at this place (fluorescence anisotropy elsewhere); reference in indirect phage ELISA.
Turning to VPFCDLLTKHCFEA (also called TN8-01-B07) [453-01-B07], the affinity, expressed as Kd, was 700 nM.

The target is the same in the next assay. The assay is described as follows: fluorescence anisotropy. The source holds these as a separate data set.
Take Ac-WYDPLTKLWLGGK(FITC′) (synthetic) [DX876]: the Kd was determined as 171 nM.
